In patent publication US20190144565A1 (UCB, published 2019):

How the values were obtained:
[1] = target: IgE-Fc, the Fc portion of human IgE (Cε2-Cε4 domains, V224-K547 by Dorrington & Bennich numbering, carrying a C225A mutation) (human) (UniProt P01854); experiment: flow cytometry, Alexa488 IgE-Fc on RBL-SX38 cells; control at 31 ug/mL
[2] = target: IgE-Fc, the Fc portion of human IgE (Cε2-Cε4 domains, V224-K547 by Dorrington & Bennich numbering, carrying a C225A mutation) (human) (UniProt P01854); experiment: flow cytometry, Alexa488 IgE-Fc on RBL-SX38 cells; control at 100 ug/mL
[3] = target: IgE-Fc, the Fc portion of human IgE (Cε2-Cε4 domains, V224-K547 by Dorrington & Bennich numbering, carrying a C225A mutation) (human) (UniProt P01854); experiment: flow cytometry, Alexa488 IgE-Fc on RBL-SX38 cells; control at 1 ug/mL
[4] = target: IgE-Fc, the Fc portion of human IgE (Cε2-Cε4 domains, V224-K547 by Dorrington & Bennich numbering, carrying a C225A mutation) (human) (UniProt P01854); experiment: flow cytometry, Alexa488 IgE-Fc on RBL-SX38 cells; control at 3.1 ug/mL
[5] = target: IgE-Fc, the Fc portion of human IgE (Cε2-Cε4 domains, V224-K547 by Dorrington & Bennich numbering, carrying a C225A mutation) (human) (UniProt P01854); experiment: flow cytometry, Alexa488 IgE-Fc on RBL-SX38 cells; control at 10 ug/mL

Sequence of IgE-Fc, the Fc portion of human IgE (Cε2-Cε4 domains, V224-K547 by Dorrington & Bennich numbering, carrying a C225A mutation) (human) (P01854 other isoform, or with tags, fused parts or gaps C225A C225A limits assumed): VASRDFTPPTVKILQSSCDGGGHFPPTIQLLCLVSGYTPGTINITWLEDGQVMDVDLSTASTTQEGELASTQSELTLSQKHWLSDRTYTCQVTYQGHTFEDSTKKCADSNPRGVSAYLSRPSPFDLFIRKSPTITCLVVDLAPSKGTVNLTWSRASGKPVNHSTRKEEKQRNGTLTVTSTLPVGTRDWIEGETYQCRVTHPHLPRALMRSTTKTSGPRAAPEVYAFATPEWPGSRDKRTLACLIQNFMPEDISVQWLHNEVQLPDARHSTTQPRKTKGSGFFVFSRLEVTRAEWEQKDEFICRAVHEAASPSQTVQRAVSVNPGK

Isotype control (antibody)
dissociation rate of IgE-Fc from FcεRI on cells [1]: 1.28e-05 s⁻¹
dissociation rate of IgE-Fc from FcεRI on cells [2]: 1.3e-05 s⁻¹
dissociation rate of IgE-Fc from FcεRI on cells [3]: 1.25e-05 s⁻¹
dissociation rate of IgE-Fc from FcεRI on cells [4]: 1.19e-05 s⁻¹
dissociation rate of IgE-Fc from FcεRI on cells [5]: 1.35e-05 s⁻¹
